The target in assay [1] is Full-length (FL) MMTV integrase (IN), wild type (mouse mammary tumor virus (MMTV)). Nature of the assay: SEC. On the technique in general: SEC sorts molecules by how far they enter the pores of the column.
The target is the same in assay [2]. Nature of the assay: AUC.

A word on the stoichiometry N: it is the number of molecules, sites or subunits per partner or assembly. For “Full-length (FL) MMTV integrase (IN), wild type (enzyme)”, the stoichiometry N in assay [1] was determined as 2; in assay [2], 8.
